Laboratory results as given in patent US20060263345A1, “Butyrylcholinesterase variant polypeptides with increased catalytic efficiency and methods of use” (priority 2003, published 2006).
Changes are numbered by the printed parent chain. Names and notes keep the numbering of the source. “Also recorded” adds a separate entry of the source. Where two headings read alike, the source gives them in different places.

Assays:
[1] = system: cocaine toxicity; conditions: rat, infusion of cocaine at 1 mg/kg/min, catecholamine levels standardized; cited from earlier work
[2] = system: Sprague Dawley rats; assay: pilot studies, lethal dose of infused cocaine; conditions: rat, i.v. infusion
Protocol: (§1) Briefly, unilateral/bilateral jugular cannulations were performed under isoflurane anesthesia (max. 20 min) on 350 g male :Sprague Dawley®SD® rats (Harlan Sprague Dawley, Inc.) The animals were allowed to recover for 24 hours before studies commenced. […] One minute later, the cannula was connected to an infusion pump (Harvard Apparatus) and cocaine (HCI salt) was infused at 6 mls/hr (2 mg/kg/min) for 15 minutes corresponding to a total dose equal to 30 mg/kg. The time-to-onset for slight convulsions, strong convulsions and death were recorded. […] In a second series of studies, 0.5 mg/kg of the A328W/Y332M/S287G/F227A variant was administered at various time points after initiation of the 30mglkg cocaine infusion and gross observations recorded.

[3] = read-out: Km for cocaine hydrolysis, previously published, cited from earlier work
[4] = Km for cocaine hydrolysis by horse butyrylcholinesterase, isotope tracer assay, Lineweaver-Burk plot; format: biochemical; conditions: 2 hour incubation at 37° C.; x intercept = -1/Km
Text: (§2) At the conclusion of the isotope tracer assay, an aliquot of the reaction mix is acidified in order to take advantage of the solubility difference between the product and the substrate at pH 3.0. […] Prospect, Ill.) while [3H]-cocaine is not.

[5] = cited from earlier work
[6] = microtiter isotope tracer [3H]-cocaine hydrolysis assay of immobilized butyrylcholinesterase variants; format: biochemical; conditions: for cocaine hydrolysis activity compared to butyrylcholinesterase (in words): compared to human butyrylcholinesterase; for increase in cocaine hydrolysis activity relative to butyrylcholinesterase: compared to human butyrylcholinesterase SEQ ID NO: 44, approximate values; for Relative Activity of butyrylcholinesterase variants (WT = 1) with enhanced cocaine hydrolase activity: relative to wild-type = 1, catalytic efficiency (Vmax/Km), [3H]-cocaine microtiter assay
Text: as §2
The supernatants isolated from each of the butyrylcholinesterase variant library clones contains variable butyrylcholinesterase enzyme concentrations.
At least three approaches are used to either increase the assay sensitivity or the assay signal.
Km values for (−)-cocaine are determined at 37° C. Vmax and Km values are calculated using Sigma Plot (Jandel Scientific, San Rafael, Calif.). The number of active sites of butyrylcholinesterase is determined by the method of residual activity using echothiopate iodide or diisopropyl fluorophosphates as titrants, as described previously by Masson et al., Biochemistry 36: 2266-2277 (1997). […] Purified human butyrylcholinesterase is used as the standard for the ELISA quantitation assay. The catalytic rate constant, kcat, is calculated by dividing Vmax by the concentration of active sites.

[7] = system: cocaine-induced toxicity; assay: in vivo cocaine toxicity, cocaine infusion 30 mg/kg in cannulated rats; conditions: rat; for effect of therapeutic treatment on cocaine-induced toxicity: FIG. 9; for effect of pre-treatment on cocaine-induced toxicity: i.v. 0.1-0.5 mg/kg, 1 minute before cocaine 2 mg/kg/min for 15 minutes, Chi-squared test p<0.001, FIG. 8
Protocol: as §1
The variant was administered at the indicated doses, 1 minute prior to infusion of 30 mg/kg cocaine (2 mg/kg/min for 15 minutes).

COC(=O)[C@H]1[C@@H](OC(=O)c2ccccc2)C[C@@H]2CC[C@H]1N2C [cocaine]
LD50 [1]: 10 mg/kg
LD90 [1]: 16 mg/kg
lethal dose of cocaine [2]: approximately 25 mg/kg

horse butyrylcholinesterase
Km ([3]; Gatley 1991): 38 µM
Km ([3]; Xie et al. 1999): 45 ± 5 µM
Km [4]: ~37.6 µM

B1: A328Y (protein, UniProt P06276 29-602, looked up, variant A328Y)
Cholinesterase: EDDIIIATKNGKVRGMNLTVFGGTVTAFLGIPYAQPPLGRLRFKKPQSLTKWSDIWNATKYANSCCQNIDQSFPGFHGSEMWNPNTDLSEDCLYLNVWIPAPKPKNATVLIWIYGGGFQTGTSSLHVYDGKFLARVERVIVVSMNYRVGALGFLALPGNPEAPGNMGLFDQQLALQWVQKNIAAFGGNPKSVTLFGESAGAASVSLHLLSPGSHSLFTRAILQSGSFNAPWAVTSLYEARNRTLNLAKLTGCSRENETEIIKCLRNKDPQEILLNEAFVVPYGTPLSVNFGPTVDGDFLTDMPDILLELGQFKKTQILVGVNKDEGTYFLVYGAPGFSKDNNSIITRKEFQEGLKIFFPGVSEFGKESILFHYTDWVDDQRPENYREALGDVVGDYNFICPALEFTKKFSEWGNNAFFYYFEHRSSKLPWPEWMGVMHGYEIEFVFGLPLERRDNYTKAEEILSRSIVKRWANFAKYGNPNETQNNSTSWPVFKSTEQKYLTLNTESTRIMTKLRAQQCRFWTSFFPKVLEMTGNIDEAEWEWKAGFHRWNNYMMDWKNQFNDYTSKKESCVGL
increase in cocaine hydrolysis activity compared to human butyrylcholinesterase ([5]; Xie et al. 1999): four
cocaine hydrolysis activity (in words) ([5]; recombinantly prepared mutations tested previously): increased cocaine hydrolysis activity

B2: A328W/S287G/F227A (protein)
chain: B1 Cholinesterase with F227A, S287G, Y328W
modifications: Butyrylcholinesterase variant
cocaine hydrolysis activity compared to butyrylcholinesterase (in words) [6]: enhanced cocaine hydrolase activity
increase in cocaine hydrolysis activity relative to butyrylcholinesterase [6]: ninety-one
Relative Activity of butyrylcholinesterase variants (WT = 1) with enhanced cocaine hydrolase activity [6]: 91

B3: A328W/Y332M/S287G/F227A/A199S (protein)
chain: B1 Cholinesterase with A199S, F227A, S287G, Y328W, Y332M
modifications: Butyrylcholinesterase variant
cocaine hydrolysis activity compared to butyrylcholinesterase (in words) [6]: enhanced cocaine hydrolase activity
increase in cocaine hydrolysis activity relative to butyrylcholinesterase [6]: one-hundred
Relative Activity of butyrylcholinesterase variants (WT = 1) with enhanced cocaine hydrolase activity [6]: 100

B4: A328W/S287G/F227A/A199S (protein)
chain: B1 Cholinesterase with A199S, F227A, S287G, Y328W
modifications: Butyrylcholinesterase variant
cocaine hydrolysis activity compared to butyrylcholinesterase (in words) [6]: enhanced cocaine hydrolase activity
increase in cocaine hydrolysis activity relative to butyrylcholinesterase [6]: one-hundred
Relative Activity of butyrylcholinesterase variants (WT = 1) with enhanced cocaine hydrolase activity [6]: 100

B5: A328W/F227A (protein)
chain: B1 Cholinesterase with F227A, Y328W
modifications: Butyrylcholinesterase variant
cocaine hydrolysis activity compared to butyrylcholinesterase (in words) [6]: enhanced cocaine hydrolase activity
increase in cocaine hydrolysis activity relative to butyrylcholinesterase [6]: sixty-eight
Relative Activity of butyrylcholinesterase variants (WT = 1) with enhanced cocaine hydrolase activity [6]: 68

B6: A328W/Y332M/S287G/F227A (protein)
chain: B1 Cholinesterase with F227A, S287G, Y328W, Y332M
modifications: Butyrylcholinesterase variant
increase in cocaine hydrolysis activity relative to butyrylcholinesterase [6]: one-hundred
effect of therapeutic treatment on cocaine-induced toxicity ([7]; 0.5 mg/kg administered at 8 minutes into the 30 mg/kg cocaine infusion (after first slight convulsions)): full protection
effect of therapeutic treatment on cocaine-induced toxicity ([7]; 0.5 mg/kg administered at later time points than 8 minutes, 0.5 mg/kg): decreased in ability to protect
effect of therapeutic treatment on cocaine-induced toxicity ([7]; 0.5 mg/kg administered at later time points than 8 minutes, listed as AME-359, 0.5 mg/kg): decreased in ability to protect
effect of pre-treatment on cocaine-induced toxicity [7]: decreasing cocaine-toxicity; also recorded: statistically significant protection against cocaine
effect of pre-treatment on cocaine-induced toxicity ([7]; listed as AME-359): statistically significant protection against cocaine
time-of-onset of symptoms associated with cocaine-induced toxicity ([7]; pre-treatment 1 minute before 30 mg/kg cocaine infusion, FIG. 12): delaying the time-of-onset of symptoms

B7: A328W/S287G/A199S (protein)
chain: B1 Cholinesterase with A199S, S287G, Y328W
modifications: Butyrylcholinesterase variant
cocaine hydrolysis activity compared to butyrylcholinesterase (in words) [6]: enhanced cocaine hydrolase activity
increase in cocaine hydrolysis activity relative to butyrylcholinesterase [6]: ninety-seven
Relative Activity of butyrylcholinesterase variants (WT = 1) with enhanced cocaine hydrolase activity [6]: 97

B8: P285Q (protein, UniProt P06276 29-602, looked up, variant P285Q)
Cholinesterase: B1 Cholinesterase with P285Q, Y328A
Relative Activity of butyrylcholinesterase variants (WT = 1) with enhanced cocaine hydrolase activity [6]: 2.4

B9: A328W (protein, UniProt P06276 29-602, looked up, variant A328W)
Cholinesterase: B1 Cholinesterase with Y328W
Relative Activity of butyrylcholinesterase variants (WT = 1) with enhanced cocaine hydrolase activity [6]: 7

B10: P285S (protein, UniProt P06276 29-602, looked up, variant P285S)
Cholinesterase: B1 Cholinesterase with P285S, Y328A
Relative Activity of butyrylcholinesterase variants (WT = 1) with enhanced cocaine hydrolase activity [6]: 1.9

B11: S287G (protein, UniProt P06276 29-602, looked up, variant S287G)
Cholinesterase: B1 Cholinesterase with S287G, Y328A
Relative Activity of butyrylcholinesterase variants (WT = 1) with enhanced cocaine hydrolase activity [6]: 4.1
